A short description of this data set: label from the status in PepcDB records.
On to “MTIQPDFNDEPGAFAMTHTHTALDKTLKERIFHALAFEGLAVLLTAPVLSLVMNKPLAHMGALTLMFSTVAMLWNMLFNSLFDRAQRRMGFQRTLQVRVLHAMLFELGLIVVLVPLAAWWLSIGLVEAFLLDMGLILFFLPYTMAFNWSYDVLRARLVESRQAKAAGCDAG”, for which the protein production result is given as “failed”.

“VLEVTQKATPNPSLLAAEDQVPCEKCGSLVPVWDMPEHMDYHFALELQKSFLQPHSSNPQVVSAVSHQGKRNPKSPLACTNKRPRPEGMQTLESFFKPLTH”: the protein production result is listed as “failed”.

Consider “MKYTVYLFDFDYTLADSSRGIVTCFRSVLERHGYTGITDDMIKRTIGKTLEESFSILTGITDADQLESFRQEYSKEADIYMNANTILFPDTLPTLTHLKKQGIRIGIISTKYRFRILSFLRNHMPDDWFDIIIGGEDVTHHKPDPEGLLLAIDRLKACPEEVLYIGDSTVDAGTAAAAGVSFTGVTSGMTTAQEFQAYPYDRIISTLGQLISVPEDKS”, for which the protein production entry is reported as “not failed”.

Consider “MNRREVRCAFSASKAARAQLLLRGKVRLEPLPTRPRTVLGLDASYSAKDGVGVGAAVLISLETLEPVDCRVYISRVCIPYIPGLLAFRELAVMAPAAAALSAEADVVMVDGHGIAHPRRFGIASHVGVILERPSIGVAKKKLVGTLVEGPGGMYVVQDGERLAIVLGTRPREVYVSPGHRITLEEAASIARATIRPGGWMPEPTRLADVISKALKTIIGGQSLINSALASLCRVKLGPRLEELERPLRRAGLEVELEHHHHHH”, for which the protein production entry is “failed”.

Turning to “MVAYPGPMPRSPSPGQTPDAPTSGGGSTDSTRQRIVAAAKEEFARHGIAGARVDRIAKQARTSKERVYAYFRSKEALYAHVAERETTALIEATQLDPADLPGYAGILFDHFAARPDHYRLITWGRLELAESADNTSGPLQATIAGKLDKLRDAQRIGLLDPAWDPVDVLALINQIAMTWAGQPEIAAAAADQAVDPSVTARRAALVTAVEHMFPRPDRDQRPNRLT”, the protein production entry is listed as “not failed”.

As to “MSHPSYPPAPQNDAGAGIPQVPAAPYAYGRQFQGGAQPGYQPGPDSGPYGSPVGAPAKSFMTTWILALLLGSFGVDRFYLGKIGTGIAKLLTAGGFGIWSIVDLIITLTGNARDKQGRPLAGYPENKKKAWIITIVVWFAGLIVGIVSTVLSLTFVAAAVQGAGTDAPVLPSASQEAPAPSSGTASDDGSLTVTMSEGNTVKVSLLNSGYTTEIPGMSYMKPTRGGFLLLEVSWEATAGSSYASPSNFEAFDADGAKGEEIYVEEGLGGLPSGDVAAGEMQRGVIAFDIKNGPTTVVISDDFGDKAATFTLTPAN”, the protein production entry was “failed”.

On to “MKITRQIFIYFSFLMAVALFFSCKTTEKAVKSPVTEETKKAEKTGKKSPREEFNDKLTHLSKKGDLEGILKLIDESDPELTKDFKIQYLKLSILISMRKTKEAETFADELSKAYPNNTEILYAQVMLAQAENNTQKKNQYLKKILAINPKDSRALTEQGLDFYSAKKYNDARRKFIEAYKADPKCTEALIGLGRINYLEGKLDQAEANLTAVLEQEPNNSTALAELARIKSETNRMYQALQDINRAAELEPNNPSHWNDIGSYNLTIGRKEEAKKAYDKVIELTPDSYVAYIYRAGINDELGYKEDALADYIKVCNLYPPYYFALEGAGILLWEKGDWLNAGTAFLKALNKAPGSYQYALLYAISLYKQNKKPDAKKFMQNYLKSINRTEKENEYFLCRLFIDFAGDSELINRATAETDMVKKGRLFFYLGEFYNLTKKYTLAEKCYVQVMSIENPAFFEYRFAKKAMDEFNSSNGK”, for which the protein production entry is “failed”.

For “MAATRLKRRKFPTINEEFYYNQLENGMTVFLIPKESFKETLAVMSSRFGSIDTNFTVNGKKKSYLAGIAHLLEHQLFEMNKQKDAAYEFTKLGAESNAYTTFDKTIYYFSTADNIKKNLDLLQEFTSQINFTDMSIEKEKKIITQEFNMYQDDSDDYLYQVILSKLYPQTSLAEDITGNRDSIDKLTKNNLEENFHYFYQPENLTLLVAGDFDVKRVYKDIVTTQRQLPDRP”, the protein production entry was “failed”.

With “MTPQNTIARELLFLALLSTLWAASYTFIKIGVETIPPLTFIAARTLIAGLLLLVVIRLRGLRLPRDPATWRLFFVQACINSVLPFTLIAWAEQSIDAGLAVILNATTPIFTFLLTALVIRHETVSGRKLFGTIAGMTGVCLIIGVEALGGAGEAIWSQLAVLTAAFSYACAAIFSKNFKGLDPVMPAAGSLICGAVLLLPVSLIVDRPWTLSPSAASLTALVCLSVFSTALAFMIYFRLMQTLGSVGTTSQAYLRVPVGVAIGMVFLGEVPTSAMWVGLVCVIAGVLAMTLPSRRRPATQGG”, the protein production result is listed as “failed”.

“MQRNLSHIISQATSAPLLLEPAYARVFFCALGRESGINSLHIPGNNESLDQSDMALVTGDFMATGKPQARFYQVVNGIAVLPVTGTLVHKLGGMRPFSGMTGYDGVTARLQQAVSDPEVKGILLDIDSPGGQAAGAFDCADMIYRMREQKPVWALANETACSAAMLLAAACSHRLVTQTSRMGSIGVVMAHTSYAEKLKQEGIDITLIYSGAHKADLTPSQKLPESVYADYQQRMDEARKMFAEKVARYTGLSVDAVMATEAAVYDGQAIITTGLADGMVNAADAIGVMAEAINSNKTGGTMPELSAADAVTQENQRVMGILGCPEARGHEALAQMLAGQPGMSVAQAKSILAAAAPADTTSTADRILALEEAGGRETLAQTLAAMPEMTVEQARTILAASPIAAATSLHDAVMALDEAKGREELAEKLAVMPGMTTDQARDLLAAAPDKSGNAGLSMNNAFDAFMQSHSPGPISGGKGHSNDTETTLLMSIPGTSAT”: the protein production result was “failed”.

Take “STRRVSVRDKLLVKEVAELEANLPCTCKVHFPDPNKLHCFQLTVTPDEGYYQGGKFQFETEVPDAYNMVPPKVKCLTKIWHPNITETGEICLSLLREHSIDGTGWAPTRTLKDVVWGLNSLFTDLLNFDDPLNIEAAEHHLRDKEDFRNKVDDYIKRYAR”: the protein production entry is reported as “not failed”.

With “MQKNLDSLLENLRAEIDALDNELSDLLDKRLEIALKIALIKQESPIYCPKREQEILKRLSQRDFKHLNGEILTGFYTEVFKISRKFQENALKELKK”, the protein production result is listed as “failed”.

For the sequence “MTPDDFDRFWPTFQAIVQARETYAFDPALSFEQARQLWLELPLHTLLAEEDGELLGSYYLKPNAAGPGAHVGNCGYMVCEQARGRGVARLMCEHSQKLARQEGFLALQFNSVVASNEVAVALWHKLGFETVGRLPKAYRHARLGLVDCLVMYKWLAD”, the protein production entry is given as “failed”.

As for “MLFIPPPLLCLFIAIAMYFLPKIASYSVHFSVIVFVISLSFLIALSSVMQSLYVKPPLILVTLKAQQN”, the protein production result is recorded as “failed”.

With “MTPLVSRLSRLWAIMRKPRAAVGSGHRKQAASQEGRQKHAKNNSQAKPSACDGLARQPEEVVLQASVSSYHLFRDVAEVTAFRGSLLSWYDQEKRDLPWRRRAEDEMDLDRRAYAVWVSEVMLQQTQVATVINYYTGWMQKWPTLQDLASASLEEVNQLWAGLGYYSRGRRLQEGARKVVEELGGHMPRTAETLQQLLPGVGRYTAGAIASIAFGQATGVVDGNVARVLCRVRAIGADPSSTLVSQQLWGLAQQLVDPARPGDFNQAAMELGATVCTPQRPLCSQCPVESLCRARQRVEQEQLLASGSLSGSPDVEECAPNTGQCHLCLPPSEPWDQTLGVVNFPRKASRKPPREESSATCVLEQPGALGAQILLVQRPNSGLLAGLWEFPSVTWEPSEQLQRKALLQELQRWAGPLPATHLRHLGEVVHTFSHIKLTYQVYGLALEGQTPVTTVPPGARWLTQEEFHTAAVSTAMKKVFRVYQGQQPGTCMGSKRSQVSSPCSRKKPRMGQQVLDNFFRSHISTDAHSLNSAAQ”, the protein production result is listed as “failed”.

In the case of “MWVKPLREASQGKKEEEIHIKTSSSSSARSLAPLLVLKLIRSLSSSSARLQASQLVLKLLCSSSSSSACPQALQLALKLLCWSSSSSTGPQAPQLVFKLSSSSLSSARLQAPPLNDHLLA”, the protein production entry is “failed”.

These data come from a protein production outcome set (Wang et al. 2014).
